Reference: patent publication US20080050387A1, “Non-Androgen Dependent Roles for Androgen Receptor and Non-Androgen Related Inhibitors of Androgen Receptor” (priority 2003, published 2008)

Molecular target: T1, VP16-AR containing the residues 37 to 919 (human), P10275
T1 chain: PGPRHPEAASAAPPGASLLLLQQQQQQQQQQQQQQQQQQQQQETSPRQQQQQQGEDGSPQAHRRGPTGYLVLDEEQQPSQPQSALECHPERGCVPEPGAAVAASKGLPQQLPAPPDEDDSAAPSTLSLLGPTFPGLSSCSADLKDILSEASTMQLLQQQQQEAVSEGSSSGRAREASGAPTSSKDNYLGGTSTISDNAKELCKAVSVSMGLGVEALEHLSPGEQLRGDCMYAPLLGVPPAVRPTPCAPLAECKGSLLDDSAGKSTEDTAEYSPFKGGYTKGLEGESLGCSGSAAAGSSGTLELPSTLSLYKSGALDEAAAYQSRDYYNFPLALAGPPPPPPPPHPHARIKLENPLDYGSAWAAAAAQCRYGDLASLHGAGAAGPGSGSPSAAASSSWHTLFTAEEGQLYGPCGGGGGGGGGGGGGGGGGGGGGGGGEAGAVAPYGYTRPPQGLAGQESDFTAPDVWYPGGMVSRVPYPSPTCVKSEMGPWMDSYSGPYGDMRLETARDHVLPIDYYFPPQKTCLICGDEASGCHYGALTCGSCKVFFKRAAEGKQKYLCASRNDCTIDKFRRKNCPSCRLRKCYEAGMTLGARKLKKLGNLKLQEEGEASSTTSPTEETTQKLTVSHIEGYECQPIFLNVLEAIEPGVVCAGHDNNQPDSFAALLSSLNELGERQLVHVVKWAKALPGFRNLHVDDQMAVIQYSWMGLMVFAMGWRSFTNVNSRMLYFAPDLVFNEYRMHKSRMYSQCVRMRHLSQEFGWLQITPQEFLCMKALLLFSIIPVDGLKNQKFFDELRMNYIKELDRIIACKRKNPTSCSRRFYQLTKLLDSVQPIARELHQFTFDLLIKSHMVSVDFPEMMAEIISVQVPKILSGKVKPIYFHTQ
Experiment: cell-based or functional assay

Question: Which two-hybrid peptide assay (pG4-LUC reporter, PC-3 cells, with against without 10 nM DHT) does the source give for HPTHSSRLWELLMEATPTM (modifications not checked) [D30 peptide (…), LXXLL motif peptide] here?
Answer: The two-hybrid peptide assay (pG4-LUC reporter, PC-3 cells, with against without 10 nM DHT) was 350 fold.
